Measurements from patent US20110263454A1, “Methods of Identifying Functional Characteristics of Promoters, Transcription Modifying Proteins and Transcription Modulating Agents” (Salk Institute for Biological Studies, priority 2008, published 2011).

Columns and labels:
mADRP promoter = experiment: NHR-promoter luciferase screen, mADRP promoter; format: cell-based, mouse; conditions: for Luc. act., normalized to lacZ / Normalized Luc. act., normalized to control: ADRP promoter, HR/ligand component; for mADRP promoter reporter activity: transcription factor +/- ligand, control = 1.00
Method in brief: (§1)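 CV-1 cells were co-transfected with 50 ng NHR (homodimer or NHR/RXR heterodimer), 100 ng promoter-luciferase construct and 50 ng LacZ. Luciferase was normalized to LacZ and to a no-NHR/no-ligand control.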

hIFNg promoter = experiment: NHR-promoter luciferase screen, hIFNg promoter; format: cell-based, human; conditions: for Luc. act., normalized to lacZ / Normalized Luc. act., normalized to control: IFNg promoter, HR component without or with ligand; for hIFNg promoter reporter activity: transcription factor +/- ligand, control = 1.00
Method in brief: as §1

mDio2 promoter = experiment: NHR-promoter luciferase screen, mDio2 promoter; format: cell-based, mouse; conditions: for Luc. act., normalized to lacZ / Normalized Luc. act., normalized to control: Dio2, HR component without or with its ligand; for mDio2 promoter reporter activity: transcription factor +/- ligand, control = 1.00
Method in brief: as §1

SREBP1c promoter = experiment: NHR-promoter luciferase screen, SREBP1c promoter; format: cell-based, mouse; conditions: for Luc. act., normalized to lacZ / Normalized Luc. act., normalized to control: SREBP1c promoter, HR component without or with ligand; for mSREBP1-c promoter reporter activity: transcription factor +/- ligand, control = 1.00
Method in brief: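 CV-1 cells co-transfected with 50 ng NHR (homodimer or NHR/RXR heterodimer), 100 ng promoter-luciferase and 50 ng LacZ. Luciferase read at 48 h, normalised to LacZ and to a no-NHR/no-ligand control.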

hIRF7 promoter = experiment: NHR-promoter luciferase screen, hIRF7 promoter; format: cell-based, human; conditions: for Normalized Luc. act., normalized to control / Luc. act., normalized to lacZ: IRF7 promoter reporter; for Normalized Luc. act., normalized to control: HR without or with its ligand, relative to control; for Luc. act., normalized to lacZ: hormone receptor (HR) without or with its ligand; for hIRF7 promoter reporter activity: transcription factor +/- ligand, control = 1.00
Method in brief: as §1

hPPARg2 promoter = experiment: NHR-promoter luciferase screen, hPPARg2 promoter; format: cell-based, human; conditions: for Luc. act., normalized to lacZ / Normalized Luc. act., normalized to control: PPARG2 promoter, hormone receptor with or without its ligand; for Normalized Luc. act., normalized to control: relative to control; for Results of assays of transcription factor (+/- ligand) with hPPARg2: Table 6d, luciferase activity relative to control (control = 1.00)
Method in brief: as §1

Row | Molecule | Luc. act., normalized to lacZ (mADRP promoter) | Normalized Luc. act., normalized to control (mADRP promoter) | mADRP promoter reporter activity (mADRP promoter) | Luc. act., normalized to lacZ (hIFNg promoter) | Normalized Luc. act., normalized to control (hIFNg promoter) | hIFNg promoter reporter activity (hIFNg promoter) | Luc. act., normalized to lacZ (mDio2 promoter) | Normalized Luc. act., normalized to control (mDio2 promoter) | mDio2 promoter reporter activity (mDio2 promoter) | Luc. act., normalized to lacZ (SREBP1c promoter) | Normalized Luc. act., normalized to control (SREBP1c promoter) | mSREBP1-c promoter reporter activity (SREBP1c promoter) | Normalized Luc. act., normalized to control (hIRF7 promoter) | Luc. act., normalized to lacZ (hIRF7 promoter) | hIRF7 promoter reporter activity (hIRF7 promoter) | Luc. act., normalized to lacZ (hPPARg2 promoter) | Normalized Luc. act., normalized to control (hPPARg2 promoter) | Results of assays of transcription factor (+/- ligand) with hPPARg2 (hPPARg2 promoter)
1 | PXR: Pregnane X Receptor (NR1I2), cDNA driver (protein, UniProt O75469 1-434, looked up) Nuclear receptor subfamily 1 …: MEVRPKESWNHADFVHCEDTESVPGKPSVNADEEVGGPQICRVCGDKATGYHFNVMTCEGCKGFFRRAMKRNARLRCPFRKGACEITRKTRRQCQACRLRKCLESGMKKEMIMSDEAVEERRALIKRKKSERTGTQPLGVQGLTEEQRMMIRELMDAQMKTFDTTFSHFKNFRLPGVLSSGCELPESLQAPSREEAAKWSQVRKDLCSLKVSLQLRGEDGSVWNYKPPADSGGKEIFSLLPHMADMSTYMFKGIISFAKVISYFRDLPIEDQISLLKGAAFELCQLRFNTVFNAETGTWECGRLSYCLEDTAGGFQQLLLEPMLKFHYMLKKLQLHEEEYVLMQAISLFSPDRPGVLQHRVVDQLQEQFAITLKSYIECNRPQPAHRFLFLKIMAMLTELRSINAQHTQRLLRIQDIHPFATPLMQELFGITGS | 1021.2 | 2.1 | 2.05 | 23.93 | 1.5 | 1.50 | 32.7 | 2.1 | 2.08 | 486.8 | 1.5 | 1.51 | 1.4 | 36.3 | 1.38 | 1.8 | 0.9 | 0.91
2 | PPARd: Peroxisome proliferator activated receptor δ (NR1C2), cDNA driver (protein, UniProt Q03181 1-441, looked up) Peroxisome …: MEQPQEEAPEVREEEEKEEVAEAEGAPELNGGPQHALPSSSYTDLSRSSSPPSLLDQLQMGCDGASCGSLNMECRVCGDKASGFHYGVHACEGCKGFFRRTIRMKLEYEKCERSCKIQKKNRNKCQYCRFQKCLALGMSHNAIRFGRMPEAEKRKLVAGLTANEGSQYNPQVADLKAFSKHIYNAYLKNFNMTKKKARSILTGKASHTAPFVIHDIETLWQAEKGLVWKQLVNGLPPYKEISVHVFYRCQCTTVETVRELTEFAKSIPSFSSLFLNDQVTLLKYGVHEAIFAMLASIVNKDGLLVANGSGFVTREFLRSLRKPFSDIIEPKFEFAVKFNALELDDSDLALFIAAIILCGDRPGLMNVPRVEAIQDTILRALEFHLQANHPDAQYLFPKLLQKMADLRQLVTEHAQMMQRIKKTETETSLHPLLQEIYKDMY | 694.0 | 1.4 | 1.39 | 19.72 | 1.2 | 1.24 | 19.1 | 1.2 | 1.21 | 658.7 | 2.0 | 2.04 | 1.3 | 33.6 | 1.27 | 2.5 | 1.2 | 1.24
3 | RXRb: Retinoic X Receptor β (NR2B2), cDNA driver (protein, UniProt P28702 1-533, looked up) Retinoic acid receptor …: MSWAARPPFLPQRHAAGQCGPVGVRKEMHCGVASRWRRRRPWLDPAAAAAAAVAGGEQQTPEPEPGEAGRDGMGDSGRDSRSPDSSSPNPLPQGVPPPSPPGPPLPPSTAPSLGGSGAPPPPPMPPPPLGSPFPVISSSMGSPGLPPPAPPGFSGPVSSPQINSTVSLPGGGSGPPEDVKPPVLGVRGLHCPPPPGGPGAGKRLCAICGDRSSGKHYGVYSCEGCKGFFKRTIRKDLTYSCRDNKDCTVDKRQRNRCQYCRYQKCLATGMKREAVQEERQRGKDKDGDGEGAGGAPEEMPVDRILEAELAVEQKSDQGVEGPGGTGGSGSSPNDPVTNICQAADKQLFTLVEWAKRIPHFSSLPLDDQVILLRAGWNELLIASFSHRSIDVRDGILLATGLHVHRNSAHSAGVGAIFDRVLTELVSKMRDMRMDKTELGCLRAIILFNPDAKGLSNPSEVEVLREKVYASLETYCKQKYPEQQGRFAKLLLRLPALRSIGLKCLEHLFFFKLIGDTPIDTFLMEMLEAPHQLA | 676.1 | 1.4 | 1.36 | 20.0 | 1.3 | 1.26 | 22.8 | 1.5 | 1.45 | 544.4 | 1.7 | 1.69 | 0.3 | 8.9 | 0.34 | 1.5 | 0.8 | 0.75
4 | FXR: Farnesoid X Receptor (NR1H4), cDNA driver (protein, UniProt Q96RI1 1-486, looked up) Bile acid receptor: MVMQFQGLENPIQISPHCSCTPSGFFMEMMSMKPAKGVLTEQVAGPLGQNLEVEPYSQYSNVQFPQVQPQISSSSYYSNLGFYPQQPEEWYSPGIYELRRMPAETLYQGETEVAEMPVTKKPRMGASAGRIKGDELCVVCGDRASGYHYNALTCEGCKGFFRRSITKNAVYKCKNGGNCVMDMYMRRKCQECRLRKCKEMGMLAECMYTGLLTEIQCKSKRLRKNVKQHADQTVNEDSEGRDLRQVTSTTKSCREKTELTPDQQTLLHFIMDSYNKQRMPQEITNKILKEEFSAEENFLILTEMATNHVQVLVEFTKKLPGFQTLDHEDQIALLKGSAVEAMFLRSAEIFNKKLPSGHSDLLEERIRNSGISDEYITPMFSFYKSIGELKMTQEEYALLTAIVILSPDRQYIKDREAVEKLQEPLLDVLQKLCKIHQPENPQHFACLLGRLTELRTFNHHHAEMLMSWRVNDHKFTPLLCEIWDVQ | 658.3 | 1.3 | 1.32 | 17.12 | 1.1 | 1.08 | 20.2 | 1.3 | 1.29 | 551.0 | 1.7 | 1.71 | 1.6 | 41.8 | 1.59 | 1.8 | 0.9 | 0.89
5 | RXRg: Retinoic X Receptor γ (NR2B3), cDNA driver (protein, UniProt P48443 1-463, looked up) Retinoic acid receptor …: MYGNYSHFMKFPAGYGGSPGHTGSTSMSPSAALSTGKPMDSHPSYTDTPVSAPRTLSAVGTPLNALGSPYRVITSAMGPPSGALAAPPGINLVAPPSSQLNVVNSVSSSEDIKPLPGLPGIGNMNYPSTSPGSLVKHICAICGDRSSGKHYGVYSCEGCKGFFKRTIRKDLIYTCRDNKDCLIDKRQRNRCQYCRYQKCLVMGMKREAVQEERQRSRERAESEAECATSGHEDMPVERILEAELAVEPKTESYGDMNMENSTNDPVTNICHAADKQLFTLVEWAKRIPHFSDLTLEDQVILLRAGWNELLIASFSHRSVSVQDGILLATGLHVHRSSAHSAGVGSIFDRVLTELVSKMKDMQMDKSELGCLRAIVLFNPDAKGLSNPSEVETLREKVYATLEAYTKQKYPEQPGRFAKLLLRLPALRSIGLKCLEHLFFFKLIGDTPIDTFLMEMLETPLQIT | 665.8 | 1.3 | 1.34 | 15.2 | 1.0 | 0.96 | 27.8 | 1.8 | 1.77 | 999.7 | 3.1 | 3.10 | 1.0 | 27.4 | 1.04 | 1.5 | 0.7 | 0.74
6 | CAR: Constitutive Androstane Receptor (NR1I3), cDNA driver (protein, UniProt Q14994 1-352, looked up) Nuclear receptor subfamily 1 …: MASREDELRNCVVCGDQATGYHFNALTCEGCKGFFRRTVSKSIGPTCPFAGSCEVSKTQRRHCPACRLQKCLDAGMRKDMILSAEALALRRAKQAQRRAQQTPVQLSKEQEELIRTLLGAHTRHMGTMFEQFVQFRPPAHLFIHHQPLPTLAPVLPLVTHFADINTFMVLQVIKFTKDLPVFRSLPIEDQISLLKGAAVEICHIVLNTTFCLQTQNFLCGPLRYTIEDGARVSPTVGFQVEFLELLFHFHGTLRKLQLQEPEYVLLAAMALFSPDRPGVTQRDEIDQLQEEMALTLQSYIKGQQRRPRDRFLYAKLLGLLAELRSINEAYGYQIQHIQGLSAMMPLLQEICS | 623.0 | 1.3 | 1.25 | 19.0 | 1.2 | 1.19 | 18.4 | 1.2 | 1.17 | 312.9 | 1.0 | 0.97 | 1.4 | 37.3 | 1.42 | 1.3 | 0.6 | 0.63
